B1: YnaI, C-terminally His-tagged (pYnaI) (natural protein, E. coli, UniProt P0AEB5 1-343, looked up)
chain: MIAELFTNNALNLVIIFGSCAALILMSFWFRRGNRKRKGFLFHAVQFLIYTIIISAVGSIINYVIENYKLKFITPGVIDFICTSLIAVILTIKLFLLINQFEKQQIKKGRDITSARIMSRIIKITIIVVLVLLYGEHFGMSLSGLLTFGGIGGLAVGMAGKDILSNFFSGIMLYFDRPFSIGDWIRSPDRNIEGTVAEIGWRITKITTFDNRPLYVPNSLFSSISVENPGRMTNRRITTTIGLRYEDAAKVGVIVEAVREMLKNHPAIDQRQTLLVYFNQFADSSLNIMVYCFTKTTVWAEWLAAQQDVYLKIIDIVQSHGADFAFPSQTLYMDNITPPEQGR
B2: YbiO, C-terminally His-tagged (pYbiO) (natural protein, E. coli K12 MG1655, UniProt P75783 19-741, looked up)
chain: VSIPGVTTTTTTDSTTEPAPEPDIEQKKAAYGALADVLDNDTSRKELIDQLRTVAATPPAEPVPKIVPPTLVEEQTVLQKVTEVSRHYGEALSARFGQLYRNITGSPHKPFNPQTFSNALTHFSMLAVLVFGFYWLIRLCALPLYRKMGQWARQKNRERSNWLQLPAMIIGAFIIDLLLLALTLFVGQVLSDNLNAGSRTIAFQQSLFLNAFALIEFFKAVLRLIFCPNVAELRPFTIQDESARYWSRRLSWLSSLIGYGLIVAVPIISNQVNVQIGALANVIIMLCMTVWALYLIFRNKKEITQHLLNFAEHSLAFFSLFIRAFALVWHWLASAYFIVLFFFSLFDPGNSLKFMMGATVRSLAIIGIAAFVSGMFSRWLAKTITLSPHTQRNYPELQKRLNGWLSAALKTARILTVCVAVMLLLSAWGLFDFWNWLQNGAGQKTVDILIRIALILFFSAVGWTVLASLIENRLASDIHGRPLPSARTRTLLTLFRNALAVIISTITIMIVLSEIGVNIAPLLAGAGALGLAISFGSQTLVKDIITGVFIQFENGMNTGDLVTIGPLTGTVERMSIRSVGVRQDTGAYHIIPWSSITTFANFVRGIGSVVANYDVDRHEDADKANQALKDAVAELMENEEIRGLIIGEPNFAGIVGLSNTAFTLRVSFTTLPLKQWTVRFALDSQVKKHFDLAGVRAPVQTYQVLPAPGATPAEPLPPGEPTL

Biological target: the molecule itself
Test: SEC-MALS

Protein	stoichiometry N
B1	7
B2	7
